Reference: PMC8866397

Assays:
[1] = tested on: HMGN1; experiment: two-color EMSA; conditions: value stated for HMGNs together, EMSA: 100 nM nucleosomes in 10 µl 2x TBE (45 mM Tris-borate pH 8.3, 1 mM EDTA), 0.15 mg/ml BSA, 5% Ficoll, 10 min at 4 °C, native 5% PAGE in 2x TBE …
[2] = tested on: HMGN2; experiment: two-color EMSA; conditions: value stated for HMGNs together, EMSA: 100 nM nucleosomes in 10 µl 2x TBE (45 mM Tris-borate pH 8.3, 1 mM EDTA), 0.15 mg/ml BSA, 5% Ficoll, 10 min at 4 °C, native 5% PAGE in 2x TBE …
[3] = low HMGN:nucleosome ratio, histone H3K27ac, scale: ratio of shifted rMNH3K27ac to rMN fluorescence
[4] = no preference over rMN, histone H3K27me3, scale: ratio of shifted rMNH3K27me3 to rMN fluorescence

| Substance | binding signal [1, 3] | binding signal [2, 3] | binding signal [1, 4] | binding signal [2, 4] |
| --- | --- | --- | --- | --- |
| rMNH3K27ac | 1.7 | 1.7 |  |  |
| rMNH3K27me3 |  |  | 1 | 1 |
